This is an account of results in patent publication US20160376321A1 (BAYLOR COLLEGE OF MEDICINE, published 2016).

This assay addresses soluble ACE2 (sACE2), containing 6xHis tag (R&D Systems) (human, UniProt Q9BYF1 18-740). Briefly: Ni-NTA pull-down with His-tagged sACE2, Western blot (FIG. 7B-C). A general note: A western blot detects proteins with antibodies after separation by electrophoresis.

B1: recombinant protein containing RBD of Middle East respiratory syndrome coronavirus (MERS-CoV) (other)
chain: QAEGVECDFSPLLSGTPPQVYNFKRLVFTNCNYNLTKLLSLFSVNDFTCSQISPAAIASNCYSSLILDYFSYPLSMKSDLSVSSAGPISQFNYKQSFSNPTCLILATVPHNLTTITKPLKYSYINKCSRFLSDDRTEVPQLVNANQYSPCVSIVPSTVWEDGDYYRKQLSPLEGGGWLVASGSTVAMTEQLQMGFGITVQYGTDTNSVCPKL
As to B1, the binding result is “no binding (tested: 20 µg)”.
